Results published in patent publication US11278600B2, “Human alpha-galactosidase variants” (Codexis, Inc., priority 2014, dated 2022).
Numbering of substitutions follows the chain as printed.

B1: 128 (protein)
chain: LDNGLARTPTMGWLHWERFMCNLDCQEEPDSCISEKLFMEMAELMVSEGWKDAGYEYLCIDDCWMAPQRDSEGRLQADPQRFPHGIRQLANYVHSKGLKLGIYADVGNKTCAGFPGSFGYYDIDAQTFADWGVDLLKFDGCYCDSLENLADGYKHMSLALNRTGRSIVYSCEWPLYMWPFQKPNYTEIRQYCNHWRNFADIDDSWKSIKSILDWTSFNQERIVDVAGPGGWNDPDMLVIGNFGLSWNQQVTQMALWAIMAAPLFMSNDLRHISPQAKALLQDKDVIAINQDPLGKQGYQLRQGDNFEVWERPLSGLAWAVAMINRQEIGGPRSYTIAVASLGKGVACNPACFITQLLPVKRKLGFYEWTSRLRSHINPTGTVLLQLENTTQMSKDLLL
modifications: Synthetic Polypeptide sequence of Variant No. 128 of mature Human GLA
B2: 140 (protein)
chain: B1 chain with Q385L, T390M
modifications: Synthetic Polypeptide sequence of Variant No. 140 of mature Human GLA
B3: 129 (protein)
chain: B1 chain with T390M, M392G
modifications: Synthetic Polypeptide sequence of Variant No. 129 of mature Human GLA
B4: 134 (protein)
chain: B1 chain with N91Q, T390M
modifications: Synthetic Polypeptide sequence of Variant No. 134 of mature Human GLA
B5: 131 (protein)
chain: B1 chain with T390M, M392S
modifications: Synthetic Polypeptide sequence of Variant No. 131 of mature Human GLA
B6: 133 (protein)
chain: B1 chain with N388R, T390M
modifications: Synthetic Polypeptide sequence of Variant No. 133 of mature Human GLA
B7: 135 (protein)
chain: B1 chain with Q190S, T369D, T390M
modifications: Synthetic Polypeptide sequence of Variant No. 135 of mature Human GLA
B8: 141 (protein)
chain: B1 chain with T390M, Q391G
modifications: Synthetic Polypeptide sequence of Variant No. 141 of mature Human GLA
B9: 130 (protein)
chain: B1 chain with T390M, M392P
modifications: Synthetic Polypeptide sequence of Variant No. 130 of mature Human GLA
B10: 139 (protein)
chain: B1 chain with Q385I, T390M
modifications: Synthetic Polypeptide sequence of Variant No. 139 of mature Human GLA
B11: 132 (protein)
chain: B1 chain with M39Y, T390M
modifications: Synthetic Polypeptide sequence of Variant No. 132 of mature Human GLA
B12: 142 (protein)
chain: B1 chain with Q80A, T390M
modifications: Synthetic Polypeptide sequence of Variant No. 142 of mature Human GLA
B13: 36 (protein)
chain: B1 chain with A350G, T390M
modifications: Synthetic Polypeptide sequence of Variant No. 36 of mature Human GLA
B14: 136 (protein)
chain: B1 chain with Q249A, T390M
modifications: Synthetic Polypeptide sequence of Variant No. 136 of mature Human GLA
B15: 138 (protein)
chain: B1 chain with Q385H, T390M
modifications: Synthetic Polypeptide sequence of Variant No. 138 of mature Human GLA
B16: 137 (protein)
chain: B1 chain with Q302A, T390M
modifications: Synthetic Polypeptide sequence of Variant No. 13 of mature Human GLA

Test: HTP-analysis of yeast culture supernatants, no challenge (MUGal hydrolysis)
Type: biochemical
Conditions: activity of the variant/activity of WT GLA (SEQ ID NO: 5), yeast supernatant
Outline: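 GLA variants expressed in yeast INVSc1, secreted into SD-Ura broth over 66-84 h at 30° C; clarified supernatants tested without challenge. Supernatant mixed with McIlvaine buffer pH 4.8 and 2 mM MUGal (citrate/KCl, pH 4.6), 37° C for 30-180 min, carbonate-quenched, fluorescence Ex 355/Em 448 nm.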

Row | Molecule | Relative Activity of GLA Variants After No Challenge (NC)
1 | B1 | + (+ = 0.5 to 1.5 relative activity over WT GLA (SEQ ID NO: 5))
2 | B2 | ++ (++ = >1.5 to 2.5 relative activity over WT GLA (SEQ ID NO: 5))
3 | B3 | + (+ = 0.5 to 1.5 relative activity over WT GLA (SEQ ID NO: 5))
4 | B4 | + (+ = 0.5 to 1.5 relative activity over WT GLA (SEQ ID NO: 5))
5 | B5 | ++ (++ = >1.5 to 2.5 relative activity over WT GLA (SEQ ID NO: 5))
6 | B6 | + (+ = 0.5 to 1.5 relative activity over WT GLA (SEQ ID NO: 5))
7 | B7 | ++ (++ = >1.5 to 2.5 relative activity over WT GLA (SEQ ID NO: 5))
8 | B8 | + (+ = 0.5 to 1.5 relative activity over WT GLA (SEQ ID NO: 5))
9 | B9 | + (+ = 0.5 to 1.5 relative activity over WT GLA (SEQ ID NO: 5))
10 | B10 | + (+ = 0.5 to 1.5 relative activity over WT GLA (SEQ ID NO: 5))
11 | B11 | + (+ = 0.5 to 1.5 relative activity over WT GLA (SEQ ID NO: 5))
12 | B12 | + (+ = 0.5 to 1.5 relative activity over WT GLA (SEQ ID NO: 5))
13 | B13 | + (+ = 0.5 to 1.5 relative activity over WT GLA (SEQ ID NO: 5))
14 | B14 | + (+ = 0.5 to 1.5 relative activity over WT GLA (SEQ ID NO: 5))
15 | B15 | ++ (++ = >1.5 to 2.5 relative activity over WT GLA (SEQ ID NO: 5))
16 | B16 | + (+ = 0.5 to 1.5 relative activity over WT GLA (SEQ ID NO: 5))

Test: HTP-analysis of supernatants pretreated with acid (MUGal hydrolysis)
Type: biochemical
Conditions: challenge at pH 4.2; activity of the variant/activity of WT GLA (SEQ ID NO: 5); yeast supernatant
Outline: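 MUGal hydrolysis was tracked by fluorescence (Ex 355 nm, Em 448 nm) after a 30-180 min reaction at 37° C. in pH 4.8 McIlvaine/citrate buffer, stopped with 1 M sodium carbonate. Beforehand, yeast (INVSc1) culture supernatants carrying GLA variants were held 1-3 h at 37° C. in acidic McIlvaine buffer, pH 3.3-4.3.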

Row | Molecule | Relative Activity of GLA Variants After Challenge at pH 4.2
17 | B1 | + (+ = 0.5 to 1.5 relative activity over WT GLA (SEQ ID NO: 5))
18 | B2 | ++ (++ = >1.5 to 2.5 relative activity over WT GLA (SEQ ID NO: 5))
19 | B3 | ++ (++ = >1.5 to 2.5 relative activity over WT GLA (SEQ ID NO: 5))
20 | B4 | + (+ = 0.5 to 1.5 relative activity over WT GLA (SEQ ID NO: 5))
21 | B5 | + (+ = 0.5 to 1.5 relative activity over WT GLA (SEQ ID NO: 5))
22 | B6 | + (+ = 0.5 to 1.5 relative activity over WT GLA (SEQ ID NO: 5))
23 | B7 | +++ (+++ = >2.5 relative activity over WT GLA (SEQ ID NO: 5))
24 | B8 | + (+ = 0.5 to 1.5 relative activity over WT GLA (SEQ ID NO: 5))
25 | B9 | ++ (++ = >1.5 to 2.5 relative activity over WT GLA (SEQ ID NO: 5))
26 | B10 | + (+ = 0.5 to 1.5 relative activity over WT GLA (SEQ ID NO: 5))
27 | B11 | + (+ = 0.5 to 1.5 relative activity over WT GLA (SEQ ID NO: 5))
28 | B12 | + (+ = 0.5 to 1.5 relative activity over WT GLA (SEQ ID NO: 5))
29 | B13 | ++ (++ = >1.5 to 2.5 relative activity over WT GLA (SEQ ID NO: 5))
30 | B14 | + (+ = 0.5 to 1.5 relative activity over WT GLA (SEQ ID NO: 5))
31 | B15 | ++ (++ = >1.5 to 2.5 relative activity over WT GLA (SEQ ID NO: 5))
32 | B16 | + (+ = 0.5 to 1.5 relative activity over WT GLA (SEQ ID NO: 5))

Test: HTP-analysis of supernatants pretreated with base (MUGal hydrolysis)
Type: biochemical
Conditions: challenge at pH 7.1; activity of the variant/activity of WT GLA (SEQ ID NO: 5); yeast supernatant
Outline: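 GLA variants secreted from yeast INVSc1; culture supernatants pre-incubated with McIlvaine buffer pH 7.0–8.2 or 200 mM bicarbonate pH 9.1–9.7 at 37° C. for 1–18 h. Residual activity: MUGal (4 mM stock) hydrolysis at pH 4.3–4.8, 37° C., 30–180 min, carbonate quench; fluorescence Ex 355/Em 448 nm.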

Row | Molecule | Relative Activity of GLA Variants After Challenge at pH 7.1
33 | B1 | + (+ = 0.5 to 1.5 relative activity over WT GLA (SEQ ID NO: 5))
34 | B2 | ++ (++ = >1.5 to 2.5 relative activity over WT GLA (SEQ ID NO: 5))
35 | B3 | ++ (++ = >1.5 to 2.5 relative activity over WT GLA (SEQ ID NO: 5))
36 | B4 | + (+ = 0.5 to 1.5 relative activity over WT GLA (SEQ ID NO: 5))
37 | B5 | ++ (++ = >1.5 to 2.5 relative activity over WT GLA (SEQ ID NO: 5))
38 | B6 | + (+ = 0.5 to 1.5 relative activity over WT GLA (SEQ ID NO: 5))
39 | B7 | ++ (++ = >1.5 to 2.5 relative activity over WT GLA (SEQ ID NO: 5))
40 | B8 | + (+ = 0.5 to 1.5 relative activity over WT GLA (SEQ ID NO: 5))
41 | B9 | + (+ = 0.5 to 1.5 relative activity over WT GLA (SEQ ID NO: 5))
42 | B10 | + (+ = 0.5 to 1.5 relative activity over WT GLA (SEQ ID NO: 5))
43 | B11 | + (+ = 0.5 to 1.5 relative activity over WT GLA (SEQ ID NO: 5))
44 | B12 | + (+ = 0.5 to 1.5 relative activity over WT GLA (SEQ ID NO: 5))
45 | B13 | ++ (++ = >1.5 to 2.5 relative activity over WT GLA (SEQ ID NO: 5))
46 | B14 | + (+ = 0.5 to 1.5 relative activity over WT GLA (SEQ ID NO: 5))
47 | B15 | ++ (++ = >1.5 to 2.5 relative activity over WT GLA (SEQ ID NO: 5))
48 | B16 | + (+ = 0.5 to 1.5 relative activity over WT GLA (SEQ ID NO: 5))
